Source: patent US20140212423A1 (AbbVie / Abbott, published 2014)

What was measured:
[1] = molecular target: T1, mouse Transferrin Receptor overexpressed on Hek 293 cells (mouse, UniProt Q62351 1-763); assay: cell-based MSD-ECL binding on Hek293 cells overexpressing mouse TfR
T1 construct: whole, on cells; also called Hek293/mTfR; 293/mTFR
Description: (§1) Meso-scale Discovery (MSD) Electrochemiluminescesnce (ECL) assays to screen for antibodies or DVDs that bind a desired target antigen expressed on the cell surface were performed as follows: Hek 293 cells overexpressing mouse Transferin Receptor were added onto MSD 96-well plates (MSD Cat# L11 XB-3, lot#2290-EA) which were blocked using blocking buffer (30% FBS Serum (Hyclone) in PBS) at 37° C. for 1 hr. After incubating at RT for 30 min with mild agitation, plates were washed with DPBS 3 times and Abs/DVDs (10,000 ng/ml) were added. After incubating for 1 hr at RT, plates were washed 3 times with DPBS and 25 ul of Goat anti human Sulfo TAG (MSD Cat# R32AC-, Lot# W001162) at 1 μg/ml is added. Following a 1 h incubation at RT for 1 hr, plates are washed and MSD read buffer is added before reading on MSD SECTOR Imager 6000. EC50 values are obtained using Xlfit4 software package

[2] = molecular target: T1, mouse Transferrin Receptor …; assay: TfR binding EC50 column of Table 8 (cell-based assay; repeats Table 7)
Description: as §1

rmTfR (119-763) = molecular target: T2, rmTfR (119-763) (mouse, UniProt Q62351 119-763); assay: Biacore SPR, antibody captured via anti-human Fc, rmTfR (119-763) in solution
T2 construct: range 119-763; also called recombinant mouse transferrin receptor 119-763
Description: The BIACORE assay (Biacore, Inc, Piscataway, N.J.) was used to determine the affinity of antibodies or DVD-Ig™ with kinetic measurements of on-rate and off-rate constants. Binding of antibodies or DVD-Ig™ to a target antigen (for example, a purified recombinant target antigen) was determined by surface plasmon resonance-based measurements with a Biacore® 1000 or 3000 instrument (Biacore® AB, Uppsala, Sweden) using running HBS-EP (10 mM HEPES [pH 7.4], 150 mM NaCl, 3 mM EDTA, and 0.005% surfactant P20) at 25° C. All chemicals were obtained from Biacore® AB (Uppsala, Sweden) or otherwise from a different source as described in the text. For example, approximately 5000 RU of goat anti-human IgG, (Fcγ), fragment specific polyclonal antibody (Pierce Biotechnology Inc, Rockford, Ill.) diluted in 10 mM sodium acetate (pH 4.5) was directly immobilized across a CM5 research grade biosensor chip using a standard amine coupling kit according to manufacturer's instructions and procedures at 25 μg/ml. Unreacted moieties on the biosensor surface are blocked with ethanolamine. Modified carboxymethyl dextran surface in flowcell 2 and 4 is used as a reaction surface. Unmodified carboxymethyl dextran without goat anti-human IgG in flow cell 1 and 3 is used as the reference surface. For kinetic analysis, rate equations derived from the 1:1 Langmuir binding model were fitted simultaneously to association and dissociation phases of all eight injections (using global fit analysis) with the use of Biaevaluation 4.0.1 software. Purified antibodies or DVD-Ig™ were diluted in HEPES-buffered saline for capture across goat anti-human IgG specific reaction surfaces. […] The association and dissociation rate constants, kon (M⁻¹s⁻¹) and koff (s⁻¹) are determined under a continuous flow rate of 25 μl/min. […] The equilibrium dissociation constant (M) of the reaction between antibodies or DVD-Ig™s and the target antigen is then calculated from the kinetic rate constants by the following formula: KD=koff/kon. Binding is recorded as a function of time and kinetic rate constants are calculated.

[3] = molecular target: T1, mouse Transferrin Receptor …; assay: mTFR binding cell-based assay
Description: as §1

rmTfR (123-763) = molecular target: T3, rmTfR (123-763) (mouse, UniProt Q62351 123-763); assay: Biacore SPR, antibody captured via anti-human Fc, rmTfR (123-763) in solution
T3 construct: range 123-763; also called recombinant mouse transferrin receptor 123-763
Description: The BIACORE assay (Biacore, Inc, Piscataway, N.J.) was used to determine the affinity of antibodies or DVD-Ig™ with kinetic measurements of on-rate and off-rate constants. Binding of antibodies or DVD-Ig™ to a target antigen (for example, a purified recombinant target antigen) was determined by surface plasmon resonance-based measurements with a Biacore® 1000 or 3000 instrument (Biacore® AB, Uppsala, Sweden) using running HBS-EP (10 mM HEPES [pH 7.4], 150 mM NaCl, 3 mM EDTA, and 0.005% surfactant P20) at 25° C. All chemicals were obtained from Biacore® AB (Uppsala, Sweden) or otherwise from a different source as described in the text. For example, approximately 5000 RU of goat anti-human IgG, (Fcγ), fragment specific polyclonal antibody (Pierce Biotechnology Inc, Rockford, Ill.) diluted in 10 mM sodium acetate (pH 4.5) was directly immobilized across a CM5 research grade biosensor chip using a standard amine coupling kit according to manufacturer's instructions and procedures at 25 μg/ml. Unreacted moieties on the biosensor surface are blocked with ethanolamine. Modified carboxymethyl dextran surface in flowcell 2 and 4 is used as a reaction surface. Unmodified carboxymethyl dextran without goat anti-human IgG in flow cell 1 and 3 is used as the reference surface. For kinetic analysis, rate equations derived from the 1:1 Langmuir binding model were fitted simultaneously to association and dissociation phases of all eight injections (using global fit analysis) with the use of Biaevaluation 4.0.1 software. Purified antibodies or DVD-Ig™ were diluted in HEPES-buffered saline for capture across goat anti-human IgG specific reaction surfaces. Antibodies or DVD-Ig™ to be captured as a ligand (25 μg/ml) were injected over reaction matrices at a flow rate of 5 μl/min. The association and dissociation rate constants, kon (M⁻¹s⁻¹) and koff (s⁻¹) are determined under a continuous flow rate of 25 μl/min. Rate constants are derived by making kinetic binding measurements at different antigen concentrations ranging from 10-200 nM. The equilibrium dissociation constant (M) of the reaction between antibodies or DVD-Ig™s and the target antigen is then calculated from the kinetic rate constants by the following formula: KD=koff/kon. Binding is recorded as a function of time and kinetic rate constants are calculated.

[4] = molecular target: T1, mouse Transferrin Receptor …; assay: MSD-ECL assay, column headed IC50 (values match the cell-based mTfR binding EC50 of Table 7)

T2 sequence (Q62351 119-763): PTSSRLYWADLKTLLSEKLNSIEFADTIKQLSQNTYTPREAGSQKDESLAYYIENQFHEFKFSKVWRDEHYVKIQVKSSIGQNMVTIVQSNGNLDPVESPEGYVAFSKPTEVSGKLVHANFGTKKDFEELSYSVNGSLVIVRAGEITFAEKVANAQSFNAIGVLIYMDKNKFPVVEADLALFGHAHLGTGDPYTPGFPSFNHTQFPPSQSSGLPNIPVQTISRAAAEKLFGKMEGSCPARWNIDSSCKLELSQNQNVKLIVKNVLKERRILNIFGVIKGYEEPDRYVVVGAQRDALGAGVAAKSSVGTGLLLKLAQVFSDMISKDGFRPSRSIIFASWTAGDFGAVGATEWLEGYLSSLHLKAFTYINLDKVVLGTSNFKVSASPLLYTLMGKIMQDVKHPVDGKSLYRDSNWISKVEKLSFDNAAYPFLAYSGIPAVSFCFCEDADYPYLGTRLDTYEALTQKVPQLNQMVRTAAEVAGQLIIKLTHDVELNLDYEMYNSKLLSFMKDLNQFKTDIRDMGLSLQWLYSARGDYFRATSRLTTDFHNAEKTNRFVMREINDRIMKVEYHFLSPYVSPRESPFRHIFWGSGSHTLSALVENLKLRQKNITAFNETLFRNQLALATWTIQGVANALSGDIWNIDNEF
T3 sequence (Q62351 123-763): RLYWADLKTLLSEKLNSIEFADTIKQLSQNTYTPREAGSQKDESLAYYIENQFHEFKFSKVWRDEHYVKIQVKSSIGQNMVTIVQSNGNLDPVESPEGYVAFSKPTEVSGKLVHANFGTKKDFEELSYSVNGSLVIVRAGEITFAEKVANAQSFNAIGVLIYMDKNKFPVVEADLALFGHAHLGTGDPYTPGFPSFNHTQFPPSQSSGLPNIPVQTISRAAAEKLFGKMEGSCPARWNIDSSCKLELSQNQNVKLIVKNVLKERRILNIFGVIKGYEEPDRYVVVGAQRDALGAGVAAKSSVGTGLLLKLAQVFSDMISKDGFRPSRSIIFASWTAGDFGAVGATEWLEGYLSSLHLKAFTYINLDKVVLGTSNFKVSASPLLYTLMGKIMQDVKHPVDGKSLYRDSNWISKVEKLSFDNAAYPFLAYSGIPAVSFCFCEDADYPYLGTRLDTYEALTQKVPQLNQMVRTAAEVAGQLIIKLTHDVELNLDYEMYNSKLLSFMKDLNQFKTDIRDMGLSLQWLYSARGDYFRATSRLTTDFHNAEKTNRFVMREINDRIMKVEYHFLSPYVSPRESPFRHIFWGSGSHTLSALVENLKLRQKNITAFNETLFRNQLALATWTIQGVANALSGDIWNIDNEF
T1 sequence (Q62351 whole entry): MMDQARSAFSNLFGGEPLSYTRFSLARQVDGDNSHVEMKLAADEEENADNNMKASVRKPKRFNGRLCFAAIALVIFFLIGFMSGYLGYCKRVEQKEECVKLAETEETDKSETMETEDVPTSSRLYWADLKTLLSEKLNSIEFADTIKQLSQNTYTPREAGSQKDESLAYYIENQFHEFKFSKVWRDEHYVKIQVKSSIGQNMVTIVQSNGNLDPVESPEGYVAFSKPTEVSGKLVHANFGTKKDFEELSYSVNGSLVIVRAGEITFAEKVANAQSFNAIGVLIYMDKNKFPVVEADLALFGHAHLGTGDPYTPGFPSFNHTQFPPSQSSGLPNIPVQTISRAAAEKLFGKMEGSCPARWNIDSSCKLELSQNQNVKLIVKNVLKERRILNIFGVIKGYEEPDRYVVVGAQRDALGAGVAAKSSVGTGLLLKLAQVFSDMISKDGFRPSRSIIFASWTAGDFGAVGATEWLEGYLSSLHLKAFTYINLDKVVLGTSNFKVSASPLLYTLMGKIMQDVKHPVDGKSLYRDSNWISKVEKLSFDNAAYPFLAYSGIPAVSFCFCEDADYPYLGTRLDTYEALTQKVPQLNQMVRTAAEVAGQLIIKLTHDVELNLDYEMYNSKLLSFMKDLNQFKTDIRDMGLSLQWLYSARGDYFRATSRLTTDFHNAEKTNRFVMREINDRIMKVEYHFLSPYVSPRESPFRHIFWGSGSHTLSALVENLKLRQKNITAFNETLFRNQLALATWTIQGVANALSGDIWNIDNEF

Binder | EC50 [1] | EC50 [2] | Kd (rmTfR (119-763)) | koff (rmTfR (119-763)) | kon (rmTfR (119-763)) | EC50 [3] | Kd (rmTfR (123-763)) | koff (rmTfR (123-763)) | kon (rmTfR (123-763)) | binding result (rmTfR (123-763)) | IC50 [4]
AB221 (antibody, V domains shown, the assays detect/capture with anti-human IgG reagents; constant regions not assigned; also called TfR(AB221); anti-mouse TfR(AB221) antibody) VH: EVQLVESGGGLVQPGNSLTLSCVASGFTFSNYGMHWIRQAPKKGLEWIAMIYYDSSKMNYADTVKGRFTISRDNSKNTLYLEMNSLRSEDTAMYYCAVPTSHYVVDVWGQGVSVTVSS VL: DIQMTQSPASLSASLEEIVTITCQASQDIGNWLAWYQQKPGKSPQLLIYGATSLADGVPSRFSGSRSGTQFSLKISRVQVEDIGIYYCLQAYNTPWTFGGGTKLELKR | 0.1 nM | 0.1 nM | 5 nM | 0.000181 s⁻¹ | 39400 M⁻¹ s⁻¹ | 0.12 nM | – | – | – | – | –
AB403 (antibody, V domains shown, humanized variant of AB221; constant regions not assigned; also called TfR(AB403)) VH: EVQLVESGGGLVQPGGSLRLSCAASGFTFSNYGMHWIRQAPGKGLEWIAMIYYDSSKMNYADTVKGRFTISRDNAKNSLYLQMNSLRAEDTAVYYCAVPTSHYVVDVWGQGTTVTVSS VL: EIVMTQSPATLSVSPGERATLSCQASQDIGNWLAWYQQKPGQSPRLLIYGATSLADGVPARFSGSRSGTEFTLTISSLQSEDFAVYYCLQAYNTPWTFGGGTKVEIKR | 0.09 nM | – | – | – | – | 0.09 nM | 3.8 nM | 8.39e-05 s⁻¹ | 22000 M⁻¹ s⁻¹ | – | –
AB405 (antibody, V domains shown, constant regions not assigned; also called TfR(AB405)) VH: QVQLVQSGAEVKKPGASVKVSCKASGFTFSNYGMHWIRQAPGQGLEWIAMIYYDSSKMNYADTVKGRFTITRDNSTNTLYMELSSLRSEDTAVYYCAVPTSHYVVDVWGQGTTVTVSS VL: EIVMTQSPATLSVSPGERATLSCQASQDIGNWLAWYQQKPGQSPRLLIYGATSLADGVPARFSGSRSGTEFTLTISSLQSEDFAVYYCLQAYNTPWTFGGGTKVEIKR | 13.6 nM | 13.6 nM | – | – | – | 13.6 nM | – | – | – | no binding (tested: antigen 10-200 nM) | –
DVD2668 (bispecific antibody, DVD-Ig, outer AB221 (TfR), inner AB043 (APP/Abeta), HG-long/LK-short; dual variable regions only; constant regions not assigned; also called TfRLSAbeta DVD2668) VH: EVQLVESGGGLVQPGNSLTLSCVASGFTFSNYGMHWIRQAPKKGLEWIAMIYYDSSKMNYADTVKGRFTISRDNSKNTLYLEMNSLRSEDTAMYYCAVPTSHYVVDVWGQGVSVTVSSASTKGPSVFPLAPEVQLLESGGGLVQPGGSLRLSCAASGFTFSNYGMSWVRQAPGKGLEWVASIRSGGGRTYYSDNVKGRFTISRDNSKNTLYLQMNSLRAEDTAVYYCVRYDHYSGSSDYWGQGTLVTVSS VL: DIQMTQSPASLSASLEEIVTITCQASQDIGNWLAWYQQKPGKSPQLLIYGATSLADGVPSRFSGSRSGTQFSLKISRVQVEDIGIYYCLQAYNTPWTFGGGTKLELKRTVAAPDVVMTQSPLSLPVTPGEPASISCKSSQSLLDSDGKTYLNWLLQKPGQSPQRLIYLVSKLDSGVPDRFSGSGSGTDFTLKISRVEAEDVGVYYCWQGTHFPRTFGQGTKVEIKR | 0.1 nM | – | – | – | – | – | – | – | – | – | 0.1 nM
DVD2671 (bispecific antibody, DVD-Ig; also called AbetaLSTfR DVD2671) VH: EVQLLESGGGLVQPGGSLRLSCAASGFTFSNYGMSWVRQAPGKGLEWVASIRSGGGRTYYSDNVKGRFTISRDNSKNTLYLQMNSLRAEDTAVYYCVRYDHYSGSSDYWGQGTLVTVSSASTKGPSVFPLAPEVQLVESGGGLVQPGNSLTLSCVASGFTFSNYGMHWIRQAPKKGLEWIAMIYYDSSKMNYADTVKGRFTISRDNSKNTLYLEMNSLRSEDTAMYYCAVPTSHYVVDVWGQGVSVTVSS VL: DVVMTQSPLSLPVTPGEPASISCKSSQSLLDSDGKTYLNWLLQKPGQSPQRLIYLVSKLDSGVPDRFSGSGSGTDFTLKISRVEAEDVGVYYCWQGTHFPRTFGQGTKVEIKRTVAAPDIQMTQSPASLSASLEEIVTITCQASQDIGNWLAWYQQKPGKSPQLLIYGATSLADGVPSRFSGSRSGTQFSLKISRVQVEDIGIYYCLQAYNTPWTFGGGTKLELK | 1.2 nM | – | – | – | – | – | – | – | – | – | 1.2 nM
AB402 (antibody, V domains shown, humanized variant of AB221; also called TfR(AB402)) VH: EVQLVESGGGLVQPGGSLRLSCAASGFTFSNYGMHWIRQAPGKGLEWIAMIYYDSSKMNYADTVKGRFTISRDNAKNSLYLQMNSLRAEDTAVYYCAVPTSHYVVDVWGQGTTVTVSS VL: AIQMTQSPSSLSASVGDRVTITCQASQDIGNWLAWYQQKPGKSPKLLIYGATSLADGVPSRFSGSRSGTDFTLTISSLQPEDFATYYCLQAYNTPWTFGGGTKVEIKR | 0.06 nM | – | – | – | – | 0.06 nM | 3.7 nM | 6.12e-05 s⁻¹ | 16400 M⁻¹ s⁻¹ | – | –
